From US20250250350A1 (ARSENAL BIOSCIENCES, published 2025)

Experiments:
SLC2A9 on THP-1 cells = biological target: T1, SLC2A9 on THP-1 cells (UniProt Q9NRM0 1-540, limits assumed); assay: 24 h co-culture of MSLN CAR (LG1 CAR) T cells with THP-1 (SLC2A9+) target cells, end-point luciferase cytotoxicity, RNP-only T cells as control
T1 construct: whole, on cells; also called SLC2A9+ cells (THP-1 cells)
T1 sequence (looked up): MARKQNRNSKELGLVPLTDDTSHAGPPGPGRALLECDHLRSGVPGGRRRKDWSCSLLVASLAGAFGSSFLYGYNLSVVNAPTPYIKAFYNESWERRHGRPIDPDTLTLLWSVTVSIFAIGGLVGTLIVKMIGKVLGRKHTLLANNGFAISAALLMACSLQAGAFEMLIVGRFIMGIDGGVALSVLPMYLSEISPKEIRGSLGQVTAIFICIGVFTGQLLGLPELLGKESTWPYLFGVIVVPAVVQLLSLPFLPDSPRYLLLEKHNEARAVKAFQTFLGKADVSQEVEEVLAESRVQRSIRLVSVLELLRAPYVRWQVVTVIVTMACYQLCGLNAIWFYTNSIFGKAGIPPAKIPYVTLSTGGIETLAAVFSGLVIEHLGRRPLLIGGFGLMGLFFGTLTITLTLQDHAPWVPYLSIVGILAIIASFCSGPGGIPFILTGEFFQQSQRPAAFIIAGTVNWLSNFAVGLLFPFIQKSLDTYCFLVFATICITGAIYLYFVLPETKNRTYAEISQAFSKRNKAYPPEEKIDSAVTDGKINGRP
Source text: (§1) T cells from four donors were engineered to constitutively express the MSLN CAR (LG1 CAR) using the manufacturing process described in Example 1 and were frozen and cryobanked at Day 9 after initial activation. […] On the day of the assay, MSLN CAR and RNP only control T cells were counted and resuspended in medium without IL-7 and IL-15 and serially diluted and added to 96-well flat-bottom, white-walled assay plates. The serial dilution of T cells results in the following co-culture effector:target (E:T) ratios once 1e4 THP-1 or K562 (negative control), K562-MSLN (positive control) and K562-GP2 target cells were added/well: 3:1, 1:1, 1:3 in technical duplicates. Prepared plates with T cells and target cells were incubated at 37° C. for 24 hours with a breathable membrane on each plate. Cytotoxicity at the end of the 24 hour co-culture was measured using an end-point luciferase assay.

GP2 on K562-GP2 cells = biological target: T2, GP2 on K562-GP2 cells (UniProt P55259 29-512, limits assumed); assay: 24 h co-culture of MSLN CAR (LG1 CAR) T cells with K562-GP2 target cells, end-point luciferase cytotoxicity, RNP-only T cells as control
T2 construct: whole, on cells
T2 sequence (P55259 29-512 limits assumed): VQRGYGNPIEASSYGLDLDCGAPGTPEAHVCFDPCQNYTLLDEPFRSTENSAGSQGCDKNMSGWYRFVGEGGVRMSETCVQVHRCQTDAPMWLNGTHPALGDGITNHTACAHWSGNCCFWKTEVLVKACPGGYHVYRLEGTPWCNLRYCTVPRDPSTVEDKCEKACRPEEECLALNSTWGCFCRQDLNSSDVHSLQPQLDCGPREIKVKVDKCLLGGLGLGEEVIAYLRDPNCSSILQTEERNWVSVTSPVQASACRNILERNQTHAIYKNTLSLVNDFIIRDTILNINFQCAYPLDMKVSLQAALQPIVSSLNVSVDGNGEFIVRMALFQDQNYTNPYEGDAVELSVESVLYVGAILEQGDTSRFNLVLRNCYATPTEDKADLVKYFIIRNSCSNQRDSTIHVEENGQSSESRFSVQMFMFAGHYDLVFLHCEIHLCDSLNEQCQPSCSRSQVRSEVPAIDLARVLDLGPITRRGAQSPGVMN
Source text: as §1

ALPG-AF647 = biological target: T3, ALPG-AF647 (human, UniProt P10696, AF647 fluorophore label, site not given); assay: flow cytometry, primary T cells with constitutive CAR and no PrimeR, stained with ALPG-AF647 and MSLN-Bio / streptavidin-PE; reagent concentration not given
T3 construct: soluble labelled staining reagent; Same protein as m5, here as a soluble staining reagent
T3 sequence (P10696 20-503 limits assumed): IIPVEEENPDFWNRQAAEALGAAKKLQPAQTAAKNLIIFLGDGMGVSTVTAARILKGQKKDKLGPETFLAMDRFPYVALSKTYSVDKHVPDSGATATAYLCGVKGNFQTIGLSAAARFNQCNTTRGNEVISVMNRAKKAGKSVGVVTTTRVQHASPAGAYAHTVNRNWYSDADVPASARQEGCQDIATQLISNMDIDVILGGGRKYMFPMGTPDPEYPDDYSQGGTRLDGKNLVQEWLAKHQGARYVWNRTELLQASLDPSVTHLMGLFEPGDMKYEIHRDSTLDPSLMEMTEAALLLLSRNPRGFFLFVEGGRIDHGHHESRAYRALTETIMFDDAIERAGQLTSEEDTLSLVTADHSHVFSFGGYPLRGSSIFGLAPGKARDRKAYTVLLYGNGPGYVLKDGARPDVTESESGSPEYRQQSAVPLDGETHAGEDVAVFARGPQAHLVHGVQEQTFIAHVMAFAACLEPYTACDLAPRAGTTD

B1: MSLN CAR (LG1 CAR) (other)
chain: QLQLQESGPGLVKPSETLSLTCTVSGGSISNSYYWGWIRQPPGKGLEWIGSIYHSGNTYYNPSLKSRVTISVDTSKNQFSLKLSSVTAADTAVYYCVTQDGVGATTTEEYWGQGTLVTVSSAAATTTPAPRPPTPAPTIASQPLSLRPEACRPAAGGAVHTRGLDFACDIYIWAPLAGTCGVLLLSLVITLYCKRGRKKLLYIFKQPFMRPVQTTQEEDGCSCRFPEEEEGGCELRVKFSRSADAPAYQQGQNQLYNELNLGRREEYDVLDKRRGRDPEMGGKPRRKNPQEGLYNELQKDKMAEAYSEIGMKGERRRGKGHDGLYQGLSTATKDTYDALHMQALPPR
notes: Chimeric antigen receptor on engineered primary human T cells; also called MSLN LG1 CAR
binding result (SLC2A9 on THP-1 cells): no binding (tested: E:T 3:1) | binding result (GP2 on K562-GP2 cells): no binding (tested: E:T 3:1) | binding result (ALPG-AF647): no binding
